Results reported in patent US6689364B2, “Borrelia burgdorferi polypeptides and uses thereof” (Tufts University, priority 2000, dated 2004).
Entries after “also recorded” stand apart in the source; their conditions may differ.

B1: FTK-OspA (protein)
chain: KQNVSSLDEKNSVSVDLPGEMKVLVSKEKNKDGKYDLIATVDKLELKGTSDKNNGSGVLEGVKADKSKVKLTISDDLGQTTLEVFKEDGKTLVSKKVTSKDKSSTEEKFNEKGEVSEKIITRADGTRLEYTGIKSDGSGKAKEVLKGFTLEGKLTAEKTTLVVKEGTVTLSKNISKSGEVSVELNDTDSSAATKKTAAWNSGTSTLTITVNSKKTKDLVFTKENTITVQQYDSNGTKLEGSAVEITKLDEIKNALK

Columns and labels:
[1] = test system: HLA-DRB1*0401 restricted OspA-specific human T cell clones; experiment: Proliferation response of human DR4-restricted T cell clones to OspA; format: cell-based; conditions: for proliferation response of T cell clones: three human DR4-restricted T cell clones from a patient with treatment-resistant Lyme arthritis, FIG. 2
Description: (§1) Binding of OspA to HLA-DRB1*0401 is determined by measuring stimulation of T cells reactive with wildtype OspA. The stimulation of T cells is determined by measuring OspA-induced proliferation or cytokine production, including interferon gamma and interleukin 13 (see Examples, below).
(§2) Human T cells were cloned from the synovial fluid of an HLA DRB1*0401 homozygous patient based upon their ability to recognize the epitope OspA165-173 in the context of HLA-DRB1*0401. These clones were then tested for their ability to respond functionally to wild type versus FTK OspA by either proliferation or cytokine secretion.
(§3) Three different human DR4-restricted T cell clones from a patient with treatment-resistant Lyme arthritis were selected for their ability to respond to the wild type OSpA165-173 peptide. […] These T cells proliferate in response to stimulation with wildtype OspA, but not FTK-OspA.

[2] = test system: HLA-DRB1*0401 restricted OspA-specific human T cell clones; experiment: Cytokine production by T cell clones on stimulation with OspA; format: cell-based; conditions: for production of interferon gamma by T cell clones: FIG. 3A; for production of interleukin 13 by T cell clones: FIG. 3B
Description: as §1, §2, §3

[3] = test system: monoclonal antibody LA-2; experiment: In vitro binding of protective anti-OspA monoclonal antibody LA-2; conditions: in vitro assay, FIG. 6
Text: Monoclonal antibody LA-2, which provides passive immunity against B. burgdorferi in mice, binds an epitope in OspA.

[4] = test system: N40 B. burgdorferi; experiment: Mouse vaccination and B. burgdorferi challenge, protection against Lyme arthritis; format: in vivo, mice; conditions: trials A and B together; for mice protected from development of arthritis: 10 μg vaccine on days 0, 14, 28, day 35 challenge with 5×10^3 or 1×10^4 N40 B. burgdorferi in footpad, day 56 histology; for mice protected from development of arthritis (protected/total): same protocol, number of mice
Text: The mouse vaccination protocol was based upon experiments in the literature which initially identified OspA as having potential as a vaccine. The vaccine has not been tested in vivo with tick challenge due to the technically difficult nature of the animal handling for such experiments. However, the artificial system used here has been utilized by others in the past and reflects accurately on the protective ability of the modified vaccine. (Fikrig et al, 1997 Immunity 6:531-539; Bockenstedt et al,1993 J Immunol 151:900-906, Fikrig et al, 1992 PNAS 89:5418-5421)
The correlation between infection and arthritis, measured for the first vaccination trial, was 1:1.
(§4) On day 35, the vaccinated mice were exposed to 5×10^3 or 1×10^4 passage 0 N40 B. burgdorferi in the right footpad. On day 56, mice were sacrificed and the following tissue samples were taken for further analysis: ankles (for histology to analyze arthritis), blood and bladder (for culture to detect B. burgdorferi), serum (for serology to determine the antibody response), and ears (for PCR to detect B. burgdorferi).

[5] = test system: OspA; experiment: Serum OspA-specific IgG in immunized mice; format: in vivo; conditions: for serum OspA-specific IgG pre-infection: FIG. 7A; for serum OspA-specific IgG post-infection: FIG. 7B
Text: as §4

Molecule | proliferation response of T cell clones [1] | production of interferon gamma by T cell clones [2] | production of interleukin 13 by T cell clones [2] | binding of monoclonal antibody LA-2 [3] | mice protected from development of arthritis [4] [%] | mice protected from development of arthritis (protected/total) [4] | serum OspA-specific IgG pre-infection [5] | serum OspA-specific IgG post-infection [5] | ability to stimulate OspA-specific T cell clones (proliferation or cytokine secretion) ([1]; clones from synovial fluid of an HLA DRB1*0401 homozygous patient)
wildtype OspA: recombinant wildtype B. burgdorferi outer surface protein A [reference compound] | proliferate | induces production | induces production | binds; also recorded: equivalently | 75 | 12/16 | similar | similar | –
B1 | not | not | not | binds; also recorded: equivalently | 87.5 | 14/16 | similar | similar | significantly decreased
